Laboratory results: PMC5433843

B1: EGFP-Mps1^WT [Drosophila] / MBP-PP1-87B [Drosophila] (parent)
chain 1: MTTPVPRRTKDMMALGLDSDSEDDFNTPYRPRQAAAGERKQQPVASFQVQTRGKENEPHPLPINMLPRRVSELTMMDSDSDEEDIKSNHNLNCAILNDSFVLSPSQELTNSNSNITTRRTPSAAPLKQSDSNLSFLGRFNDMGINCSSQGSPVANSEKQVAKKTAPTLQAAPSATERRPLQETETPLRNELPSTSKTKPDADFITPQVRTIGSTLAGKSRSAVSNDFRAQKVLFQTPMTVSRAAPVASDSISFSLCDTITESPDIPEPPKKAEPPKSQHPSKKSLDHVFRESDKDNVPDKVDNVEPKELVSIPAVAVPPEQPSHKTSNILKIKNHEYTIDKKLGCGGSSSVFLARRSDSGNEFALKVVDLQADPQVVQGYLNETKLLAKLQGNVCVVALYDYQLVREESKLYMVMEKGDCDLNKILQSYTTNLPLYSLMNILYQMLQAVNYIHQHGVIHSDLKPANFLMVSGRLKLIDFGIASNIAVDSTSIIKFSQAGTFNYISPEALTDTSTGNSPMRRADQPKIKISTKSDVWSLGCILYLLLYQKTPFGHIRNVYAKMSAITTPGTSIEYPAIPPYYPIMLVHMAKNCLQLNPKKRPSCTELLQYPFHMIIPLQNLQIPSRTANSN
chain 2: MGDVMNIDSIISRLLEVRGARPGKNVQLSEGEIRGLCLKSREIFLSQPILLELEAPLKICGDIHGQYYDLLRLFEYGGFPPESNYLFLGDYVDRGKQSLETICLLLAYKIKYSENFFLLRGNHECASINRIYGFYDECKRRYSIKLWKTFTDCFNCLPVAAIVDEKIFCCHGGLSPDLTSMEQIRRIMRPTDVPDQGLLCDLLWSDPDKDTMGWGENDRGVSFTFGAEVVAKFLQKHEFDLICRAHQVVEDGYEFFAKRMLVTLFSAPNYCGEFDNAGAMMSVDDTLMCSFQILKPADKRKK

Variants of: B1
Test: pull-down (MBP-PP1-87B beads, S2 cell lysates), western blot chemiluminescence quantification
Conditions: with MBP-PP1-87B [Drosophila]; at least two independent experiments; mean ± SD; parent: 1; read off a plot
Variant chain 1 K231A F234A has a ratio to parent of 0.3.
